Experimental data taken from patent US10201282B2 (The Regents of the University of California, priority 2014, dated 2019).

Target: T1, TEV protease (Tobacco etch virus, UniProt P04517)
T1 construct: With co-expression of the TEV protease; expressed in transfected cells; host or cells: HEK293 / HEK293T
Assay: iTEV (EK) coiled-coil sensor in HEK293 cells without or with TEV protease
Type: cell-based
From the text: HEK293 cells were transfected with the iTEV (EK) sensor without (top two panels) or with (bottom two panels) TEV protease.
For example, heterodimeric coiled coils were used to replace split GFP in iTEV (De Crescenzo, G., Litowski, J. R., Hodges, R. S. & O'Connor-McCourt, M. D. Real-Time Monitoring of the Interactions of Two-Stranded de NovoDesigned Coiled-Coils: Effect of Chain Length on the Kinetic and Thermodynamic Constants of Binding †. Biochemistry 42, 1754-1763 (2003)).

T1 sequence (P04517 2038-2279): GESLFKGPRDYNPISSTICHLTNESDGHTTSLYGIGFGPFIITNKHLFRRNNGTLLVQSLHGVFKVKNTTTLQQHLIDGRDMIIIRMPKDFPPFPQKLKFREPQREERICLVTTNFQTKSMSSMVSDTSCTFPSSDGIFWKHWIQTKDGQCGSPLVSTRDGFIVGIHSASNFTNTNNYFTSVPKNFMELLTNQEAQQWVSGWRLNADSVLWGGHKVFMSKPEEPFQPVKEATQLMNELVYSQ

B1: iTEV (EK) (protein)
chain: MGGSKVSALKEKVSALKEKVSALKEKVSALKEKVSALKEGGSGSTTNIAPALDGAFHRITSSSSLMGLCDETATIIREITGYDRVMVVRFDEEGNGEILSERRRADLEAFLGNRYPASTIPQIARRLYEHNRVRLLVDVNYTPVPLQPRISPLNGRDLDMSLSCLRSMSPIHQKYMQDMGVGATLVCSLMVSGRLWGLIACHHYEPRFVPFHIRAAGEALAETCAIRIATLESENLYFQSEFCEREQIHLAGSIQPHGILLAVKEPDNVVIQASINAAEFLNTNSVVGRPLRDLGGDLPLQILPHLNGPLHLAPMTLRCTVGSPPRRVDCTIHRPSNGGLIVELEPATKLEGGGSGGSEVSALEKEVSALEKEVSALEKEVSALEKEVSALEK
modifications: (Amino acid sequence of iTEV(+) 5.1)
TEV protease co-expressed
  infrared fluorescence: becomes infrared fluorescent
Without TEV protease
  infrared fluorescence: not infrared fluorescent
